Test results reported in patent US20250262210A1 (TRUSTEES OF COLUMBIA UNIVERSITY IN THE CITY OF NEW YORK, published 2025).

How the values were obtained:
Test in all cases: IP/MS, LZTR1 R810W-FLAG, U87
CDK5RAP2 = CDK5RAP2 (human, UniProt Q96SN8 1-1893, limits assumed)
In short: (§1)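 Gel slices were reduced with 5 mM DTT, alkylated with 11 mM IAA and digested overnight at 37° C. with trypsin. Peptides were analysed on an Orbitrap Fusion Tribrid by LC-MS/MS.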

RICTOR = RICTOR (human, UniProt Q6R327 1-1708, limits assumed)
Sequence of RICTOR (Q6R327 whole entry): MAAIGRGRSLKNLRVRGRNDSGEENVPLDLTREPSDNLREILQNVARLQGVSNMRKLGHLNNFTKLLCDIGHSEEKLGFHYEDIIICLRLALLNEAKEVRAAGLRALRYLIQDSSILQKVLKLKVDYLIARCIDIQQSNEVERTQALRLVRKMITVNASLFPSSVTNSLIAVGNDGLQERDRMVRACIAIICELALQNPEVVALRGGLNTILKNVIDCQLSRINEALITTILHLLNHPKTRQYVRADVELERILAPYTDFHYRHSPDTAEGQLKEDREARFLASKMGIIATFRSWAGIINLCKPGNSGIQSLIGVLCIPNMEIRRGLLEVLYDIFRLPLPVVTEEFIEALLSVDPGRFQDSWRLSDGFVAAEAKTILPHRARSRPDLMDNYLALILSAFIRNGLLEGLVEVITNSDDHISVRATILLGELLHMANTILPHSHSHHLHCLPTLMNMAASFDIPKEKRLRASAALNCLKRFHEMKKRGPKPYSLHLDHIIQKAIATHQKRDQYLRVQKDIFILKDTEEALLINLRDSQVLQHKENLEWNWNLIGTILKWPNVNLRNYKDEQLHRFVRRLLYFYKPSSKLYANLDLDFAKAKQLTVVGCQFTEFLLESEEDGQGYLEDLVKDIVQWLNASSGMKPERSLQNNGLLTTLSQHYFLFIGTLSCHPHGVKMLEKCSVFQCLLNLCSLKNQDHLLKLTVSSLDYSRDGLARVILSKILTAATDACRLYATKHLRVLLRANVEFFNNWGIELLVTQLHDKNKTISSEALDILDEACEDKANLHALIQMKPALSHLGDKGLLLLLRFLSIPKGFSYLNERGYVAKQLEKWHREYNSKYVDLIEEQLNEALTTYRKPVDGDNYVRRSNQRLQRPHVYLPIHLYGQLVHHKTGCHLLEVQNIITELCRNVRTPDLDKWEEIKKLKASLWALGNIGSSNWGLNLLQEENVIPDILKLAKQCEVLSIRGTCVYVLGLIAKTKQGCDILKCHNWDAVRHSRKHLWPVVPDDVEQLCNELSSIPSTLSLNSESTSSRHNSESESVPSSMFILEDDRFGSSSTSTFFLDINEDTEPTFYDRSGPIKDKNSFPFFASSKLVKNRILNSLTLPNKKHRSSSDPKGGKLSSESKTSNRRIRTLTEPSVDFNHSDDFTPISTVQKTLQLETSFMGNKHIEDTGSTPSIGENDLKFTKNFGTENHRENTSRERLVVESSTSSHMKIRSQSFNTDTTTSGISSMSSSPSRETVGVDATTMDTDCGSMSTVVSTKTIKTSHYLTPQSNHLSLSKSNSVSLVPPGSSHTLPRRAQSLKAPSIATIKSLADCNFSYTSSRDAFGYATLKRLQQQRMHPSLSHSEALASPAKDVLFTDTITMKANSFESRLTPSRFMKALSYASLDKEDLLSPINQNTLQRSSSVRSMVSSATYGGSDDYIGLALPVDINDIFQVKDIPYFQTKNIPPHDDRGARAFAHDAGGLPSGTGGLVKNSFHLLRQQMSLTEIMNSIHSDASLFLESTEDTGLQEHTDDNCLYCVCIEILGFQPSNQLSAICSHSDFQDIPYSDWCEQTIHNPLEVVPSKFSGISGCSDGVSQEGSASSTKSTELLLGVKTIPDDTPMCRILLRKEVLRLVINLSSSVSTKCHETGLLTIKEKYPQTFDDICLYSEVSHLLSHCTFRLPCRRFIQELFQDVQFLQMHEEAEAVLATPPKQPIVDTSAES
In short: as §1

PARP14 = PARP14 (human, UniProt Q460N5 1-1801, limits assumed)
Sequence of PARP14 (Q460N5 whole entry): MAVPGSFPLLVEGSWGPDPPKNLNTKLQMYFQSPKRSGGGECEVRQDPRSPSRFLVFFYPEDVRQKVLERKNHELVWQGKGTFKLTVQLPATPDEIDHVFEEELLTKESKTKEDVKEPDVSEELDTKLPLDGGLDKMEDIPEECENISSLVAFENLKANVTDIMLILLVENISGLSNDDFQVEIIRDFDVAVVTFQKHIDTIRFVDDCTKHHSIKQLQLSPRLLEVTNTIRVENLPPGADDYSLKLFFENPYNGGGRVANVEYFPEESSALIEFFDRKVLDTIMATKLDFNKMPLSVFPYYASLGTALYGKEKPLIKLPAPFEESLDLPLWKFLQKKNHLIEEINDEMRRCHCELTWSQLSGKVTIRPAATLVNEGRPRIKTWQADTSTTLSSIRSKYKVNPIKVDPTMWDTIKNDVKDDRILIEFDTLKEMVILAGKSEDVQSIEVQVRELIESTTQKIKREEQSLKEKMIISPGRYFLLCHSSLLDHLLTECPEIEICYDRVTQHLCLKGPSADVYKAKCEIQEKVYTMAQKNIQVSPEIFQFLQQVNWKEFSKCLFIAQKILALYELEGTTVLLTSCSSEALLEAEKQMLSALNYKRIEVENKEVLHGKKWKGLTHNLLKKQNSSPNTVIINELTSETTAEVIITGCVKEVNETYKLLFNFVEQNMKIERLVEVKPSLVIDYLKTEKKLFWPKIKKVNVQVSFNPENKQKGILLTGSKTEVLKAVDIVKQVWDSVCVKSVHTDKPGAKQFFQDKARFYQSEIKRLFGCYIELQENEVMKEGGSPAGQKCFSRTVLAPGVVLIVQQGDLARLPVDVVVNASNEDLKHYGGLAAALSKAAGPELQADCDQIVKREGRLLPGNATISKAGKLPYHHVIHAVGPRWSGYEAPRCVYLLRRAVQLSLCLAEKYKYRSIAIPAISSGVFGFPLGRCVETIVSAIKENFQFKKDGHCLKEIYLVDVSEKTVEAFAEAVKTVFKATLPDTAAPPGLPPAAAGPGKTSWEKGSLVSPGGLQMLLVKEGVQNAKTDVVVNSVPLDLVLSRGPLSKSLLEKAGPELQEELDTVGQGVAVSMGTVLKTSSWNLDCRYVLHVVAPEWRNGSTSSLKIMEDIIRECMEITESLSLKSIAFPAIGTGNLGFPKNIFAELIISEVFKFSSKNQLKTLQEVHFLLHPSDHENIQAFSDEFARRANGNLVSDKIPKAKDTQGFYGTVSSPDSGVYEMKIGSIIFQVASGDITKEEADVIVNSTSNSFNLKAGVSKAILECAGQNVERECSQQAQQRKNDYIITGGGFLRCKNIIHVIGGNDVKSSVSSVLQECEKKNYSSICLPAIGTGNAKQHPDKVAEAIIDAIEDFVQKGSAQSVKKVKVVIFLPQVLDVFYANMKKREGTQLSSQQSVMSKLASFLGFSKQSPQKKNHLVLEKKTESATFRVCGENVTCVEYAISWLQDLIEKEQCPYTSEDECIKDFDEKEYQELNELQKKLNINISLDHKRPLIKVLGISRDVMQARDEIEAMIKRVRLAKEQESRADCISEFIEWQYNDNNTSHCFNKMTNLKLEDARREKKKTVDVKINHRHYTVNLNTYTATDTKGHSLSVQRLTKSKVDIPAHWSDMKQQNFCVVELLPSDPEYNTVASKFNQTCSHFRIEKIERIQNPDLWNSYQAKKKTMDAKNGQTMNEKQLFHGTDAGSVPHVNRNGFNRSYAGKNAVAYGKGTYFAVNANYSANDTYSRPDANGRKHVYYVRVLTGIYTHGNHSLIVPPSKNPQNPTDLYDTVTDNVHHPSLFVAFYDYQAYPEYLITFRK
In short: as §1

STK11IP = target: T1, STK11IP (human, UniProt Q8N1F8 1-1088)
T1 sequence (looked up): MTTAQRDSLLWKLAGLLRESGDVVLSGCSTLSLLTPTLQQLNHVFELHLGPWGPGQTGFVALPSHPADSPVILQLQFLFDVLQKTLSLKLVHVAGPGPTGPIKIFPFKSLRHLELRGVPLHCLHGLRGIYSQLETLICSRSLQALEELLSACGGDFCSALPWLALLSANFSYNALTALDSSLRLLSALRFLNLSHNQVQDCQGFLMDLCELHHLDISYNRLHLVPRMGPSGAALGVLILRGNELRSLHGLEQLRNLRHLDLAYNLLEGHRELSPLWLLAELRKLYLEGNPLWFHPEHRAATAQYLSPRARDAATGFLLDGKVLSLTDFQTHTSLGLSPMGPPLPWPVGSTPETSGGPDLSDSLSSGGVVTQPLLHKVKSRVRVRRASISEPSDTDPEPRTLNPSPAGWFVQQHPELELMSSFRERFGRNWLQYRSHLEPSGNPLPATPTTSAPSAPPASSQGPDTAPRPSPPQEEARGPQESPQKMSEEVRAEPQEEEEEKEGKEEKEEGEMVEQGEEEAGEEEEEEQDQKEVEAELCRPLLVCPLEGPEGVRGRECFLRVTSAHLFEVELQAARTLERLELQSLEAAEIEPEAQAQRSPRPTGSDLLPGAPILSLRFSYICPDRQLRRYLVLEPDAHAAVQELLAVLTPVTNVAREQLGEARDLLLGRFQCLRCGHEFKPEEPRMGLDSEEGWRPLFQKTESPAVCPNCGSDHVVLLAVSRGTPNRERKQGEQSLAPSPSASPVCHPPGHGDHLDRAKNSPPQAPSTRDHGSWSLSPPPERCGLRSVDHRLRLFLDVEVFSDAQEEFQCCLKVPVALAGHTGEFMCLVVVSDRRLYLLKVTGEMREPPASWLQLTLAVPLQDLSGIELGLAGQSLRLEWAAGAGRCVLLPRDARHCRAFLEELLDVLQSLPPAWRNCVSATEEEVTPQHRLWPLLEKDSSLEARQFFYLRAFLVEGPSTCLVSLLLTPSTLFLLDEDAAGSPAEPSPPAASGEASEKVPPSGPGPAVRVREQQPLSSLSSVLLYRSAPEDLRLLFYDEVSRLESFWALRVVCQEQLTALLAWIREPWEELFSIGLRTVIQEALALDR
In short: as §1

CDC42BPB = CDC42BPB (human, UniProt Q9Y5S2 1-1711)
In short: as §1

Measured: binding result

B1: LZTR1 R810W-FLAG (other, human, UniProt Q8N653 1-840, looked up)
chain: MAGPGSTGGQIGAAALAGGARSKVAPSVDFDHSCSDSVEYLTLNFGPFETVHRWRRLPPCDEFVGARRSKHTVVAYKDAIYVFGGDNGKTMLNDLLRFDVKDCSWCRAFTTGTPPAPRYHHSAVVYGSSMFVFGGYTGDIYSNSNLKNKNDLFEYKFATGQWTEWKIEGRLPVARSAHGATVYSDKLWIFAGYDGNARLNDMWTIGLQDRELTCWEEVAQSGEIPPSCCNFPVAVCRDKMFVFSGQSGAKITNNLFQFEFKDKTWTRIPTEHLLRGSPPPPQRRYGHTMVAFDRHLYVFGGAADNTLPNELHCYDVDFQTWEVVQPSSDSEVGGAEVPERACASEEVPTLTYEERVGFKKSRDVFGLDFGTTSAKQPTQPASELPSGRLFHAAAVISDAMYIFGGTVDNNIRSGEMYRFQFSCYPKCTLHEDYGRLWESRQFCDVEFVLGEKEECVQGHVAIVTARSRWLRRKITQARERLAQKLEQEAAPVPREAPGVAAGGARPPLLHVAIREAEARPFEVLMQFLYTDKIKYPRKGHVEDVLLIMDVYKLALSFQLCRLEQLCRQYIEASVDLQNVLVVCESAARLQLSQLKEHCLNFVVKESHFNQVIMMKEFERLSSPLIVEIVRRKQQPPPRTPLDQPVDIGTSLIQDMKAYLEGAGAEFCDITLLLDGHPRPAHKAILAARSSYFEAMFRSFMPEDGQVNISIGEMVPSRQAFESMLRYIYYGEVNMPPEDSLYLFAAPYYYGFYNNRLQAYCKQNLEMNVTVQNVLQILEAADKTQALDMKRHCLHIIVHQFTKVSKLPTLWSLSQQLLLDIIDSLASHISDKQCAELGADI
notes: Stably expressed in U87 cells by lentivirus; also called LZTR1-FLAG-R810W; LZTR1 RW; not shown: FLAG tag
binds: CDK5RAP2 | RICTOR | PARP14 | STK11IP | CDC42BPB
